Measured values reported in publication PMC4707474, “Identification of a small molecule that simultaneously suppresses virulence and antibiotic resistance of Pseudomonas aeruginosa” (Scientific Reports, 2016).

Legend:
[1] = target: T1, P. aeruginosa DHODase (PyrD, dihydroorotate dehydrogenase) (Pseudomonas aeruginosa, UniProt Q9HZF8); test: DCIP-based colorimetric enzyme assay, […] min preincubation, dose-response; assay type: biochemical
T1 construct: pyrD open reading frame from PAO1 genomic DNA, in pET28a, recombinant Ni-NTA purified

[2] = substrate: O=C1C[C@@H](C(=O)O)NC(=O)N1; test: steady-state enzyme kinetics (Km), DCIP colorimetric assay; assay type: biochemical, Pseudomonas aeruginosa; conditions: FMN
[3] = substrate: COC1=C(OC)C(=O)C(C)=CC1=O; test: steady-state enzyme kinetics (Km) as electron acceptor, DCIP colorimetric assay; assay type: biochemical, Pseudomonas aeruginosa; conditions: FMN

IC50 [1] [µM]	Molecule	Km [2] [µM]	Km [3] [µM]
41	C[C@@H](NC(=O)CSc1nnnn1-c1ccc(O)cc1)c1ccc(-c2ccccc2)cc1 [compound 14]		
	P. aeruginosa DHODase (PyrD, dihydroorotate dehydrogenase) (Pseudomonas aeruginosa PAO1) (protein, pyrD open reading frame from PAO1 genomic DNA, in pET28a, recombinant Ni-NTA purified) MYTLARQLLFKLSPETSHELSIDLIGAGGRLGLNRLLTPKPASLPVSVLGLEFPNPVGLAAGLDKNGDAIDGFGQLGFGFIEIGTVTPRPQPGNPRPRLFRLPQANAIINRMGFNNHGVDHLLARVRAAKYRGVLGINIGKNFDTPVERAVDDYLICLDKVYADASYVTVNVSSPNTPGLRSLQFGDSLKQLLEALRQRQEALALRHGRRVPLAIKIAPDMTDEETALVAAALVEAGMDAVIATNTTLGREGVEGLPHGDEAGGLSGAPVREKSTHTVKVLAGELGGRLPIIAAGGITEGAHAAEKIAAGASLVQIYSGFIYKGPALIREAVDAIAALPRRN	60.8	25.6
